doi:10.1101/2022.03.13.484121, “Helical ultrastructure of the oncogenic metalloprotease meprin α in complex with a small molecule hydroxamate inhibitor” (bioRxiv, 2022)
Numbering of substitutions follows the chain as printed. Names and notes keep the numbering of the source.

B1: pro-meprin α R372T (enzyme, human (from the printed accession), UniProt Q16819 22-600, looked up)
chain: VPIKYLPEENVHDADFGEQKDISEINLAAGLDLFQGDILLQKSRNGLRDPNTRWTFPIPYILADNLGLNAKGAILYAFEMFRLKSCVDFKPYEGESSYIIFQQFDGCWSEVGDQHVGQNISIGQGCAYKAIIEHEILHALGFYHEQSRTDRDDYVNIWWDQILSGYQHNFDTYDDSLITDLNTPYDYESLMHYQPFSFNKNASVPTITAKIPEFNSIIGQRLDFSAIDLERLNRMYNCTTTHTLLDHCTFEKANICGMIQGTRDDTDWAHQDSAQAGEVDHTLLGQCTGAGYFMQFSTSSGSAEEAALLESRILYPKRKQQCLQFFYKMTGSPSDRLVVWVRRDDSTGNVTKLVKVQTFQGDDDHNWKIAHVVLKEEQKFRYLFQGTKGDPQNSTGGIYLDDITLTETPCPTGVWTVRNFSQVLENTSKGDKLQSPRFYNSEGYGFGVTLYPNSRESSGYLRLAFHVCSGENDAILEWPVENRQVIITILDQEPDVRNRMSSSMVFTTSKSHTSPAINDTVIWDRPSRVGTYHTDCNCFRSIDLGWSGFISHQMLKRRSFLKNDDLIIFVDFEDITHLS
notes: meprin α pro-form V22-S600 of uniprot Q16819 with R372T (removes a salt bridge of the helix interface); SEC-MALS was done on the zymogen (legend S6c); also called Pro-Meprin α variant R372T; source: S2 cells, secreted, purified (HIC-EBA, Strep-Tactin)
B2: pro-meprin α R372A (enzyme, human (from the printed accession), UniProt Q16819 22-600, looked up)
chain: B1 chain with T351A
notes: meprin α pro-form V22-S600 of uniprot Q16819 with R372A (removes a salt bridge of the helix interface); source: S2 cells, secreted, purified (HIC-EBA, Strep-Tactin)
B3: pro-meprin α (V22-S600), wild type (enzyme, human (from the printed accession), UniProt Q16819 22-600, looked up)
chain: B1 chain with T351R
modifications: N-linked glycosylations (sites not given in the text)
notes: meprin α, pro-form without signal peptide, EGF-like domain and transmembrane region; V22-S600 of uniprot Q16819; Cloned into pMT/BiP/V5; Subunits form a disulphide-linked (C308) homodimer; the dimers form helical filaments; also called zymogen; wild type meprin α; source: Schneider-2 Drosophila cells (S2), secreted, purified (HIC-EBA, Strep-Tactin)
B4: meprin α, active (mature) form, wild type (enzyme, human (from the printed accession), UniProt Q16819 22-600, looked up)
chain: NGLRDPNTRWTFPIPYILADNLGLNAKGAILYAFEMFRLKSCVDFKPYEGESSYIIFQQFDGCWSEVGDQHVGQNISIGQGCAYKAIIEHEILHALGFYHEQSRTDRDDYVNIWWDQILSGYQHNFDTYDDSLITDLNTPYDYESLMHYQPFSFNKNASVPTITAKIPEFNSIIGQRLDFSAIDLERLNRMYNCTTTHTLLDHCTFEKANICGMIQGTRDDTDWAHQDSAQAGEVDHTLLGQCTGAGYFMQFSTSSGSAEEAALLESRILYPKRKQQCLQFFYKMTGSPSDRLVVWVRRDDSTGNVRKLVKVQTFQGDDDHNWKIAHVVLKEEQKFRYLFQGTKGDPQNSTGGIYLDDITLTETPCPTGVWTVRNFSQVLENTSKGDKLQSPRFYNSEGYGFGVTLYPNSRESSGYLRLAFHVCSGENDAILEWPVENRQVIITILDQEPDVRNRMSSSMVFTTSKSHTSPAINDTVIWDRPSRVGTYHTDCNCFRSIDLGWSGFISHQMLKRRSFLKNDDLIIFVDFEDITHLS
modifications: N-linked glycosylations (sites not given in the text)
notes: meprin α construct V22-S600 of uniprot Q16819 after removal of the pro-peptide by trypsin; also called active state

Columns and labels:
[1] = target: the molecule itself; assay: MALDI-TOF mass spectrometry; C4 ZipTip purified samples, DHAP matrix, linear positive mode; zymogen and mature forms; shows only the covalent (disulphide) dimer
[2] = target: the molecule itself; assay: electron microscopy (cryo-TEM, 120 kV); inspection of particles of the purified variants

Row | Protein | stoichiometry N [1] | stoichiometry N [2]
1 | B1 | 2 | 
2 | B2 |  | 2
3 | B3 | 2 | 
4 | B4 | 2 | 
